Consider six molecules from patent US20220056119A1 (Regeneron, published 2022).

Test [1] has as its target T1, Activin A (human, UniProt P08476 311-426).
T1 construct: Homodimer of two betaA subunits; bought (R&D Systems #338-AC); also called inhibin-betaA dimer
T1 sequence: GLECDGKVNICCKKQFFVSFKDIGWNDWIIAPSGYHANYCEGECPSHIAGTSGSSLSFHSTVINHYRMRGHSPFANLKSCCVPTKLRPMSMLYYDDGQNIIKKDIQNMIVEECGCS
The test can be described thus: SPR, 5 nM Activin A + 7.5 nM binder over Follistatin-288 surface. The protocol:
(§1) The binding signal (RU) was measured at 150 seconds after the start of the injection, and this signal was subtracted by the measured RU value for a negative control reference surface to determine the specific binding signal.

Test [2] addresses T2, Activin B (human, UniProt P09529 293-407).
T2 chain: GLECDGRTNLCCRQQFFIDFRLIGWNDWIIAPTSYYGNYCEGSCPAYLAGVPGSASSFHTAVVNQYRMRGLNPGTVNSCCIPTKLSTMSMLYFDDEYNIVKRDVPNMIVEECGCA
As to the kind of experiment: cell-based or functional assay.

The target of test [3] is T1, Activin A. The test can be described thus: cell-based or functional assay.
The target of test [4] is T3, Activin AC (human, UniProt P55103 237-352).
T3 sequence 1: T1 sequence
T3 sequence 2: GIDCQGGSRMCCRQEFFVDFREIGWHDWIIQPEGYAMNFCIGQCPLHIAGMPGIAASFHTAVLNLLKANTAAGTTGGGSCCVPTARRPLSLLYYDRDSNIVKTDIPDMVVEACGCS
The test can be described thus: cell-based or functional assay.

The target of test [5] is T4, Activin AB (human, UniProt P08476 311-426; P09529 293-407).
T4 chain 1: T1 sequence
T4 chain 2: T2 chain
The test can be described thus: cell-based or functional assay.

For test [6], the target named is T1, Activin A. The test can be described thus: SPR, 5 nM Activin A + 3.75 nM binder over hActRIIA-hFc surface. The protocol:
as §1
A general note: SPR reads the build-up and loss of mass on a sensor chip optically.

Test [7] concerns the target T1, Activin A. The test can be described thus: SPR, 5 nM Activin A + 30 nM binder over hActRIIA-hFc surface. As for the experimental part:
as §1

In test [8] the target is T1, Activin A. The test can be described thus: SPR, 5 nM Activin A + 7.50 nM binder over hActRIIA-hFc surface. As for the experimental part:
as §1

In test [9] the target is T1, Activin A. As to the kind of experiment: SPR, 5 nM Activin A + 60 nM binder over hActRIIA-hFc surface. As for the experimental part: as §1
Test [10] has as its target T1, Activin A. As to the kind of experiment: SPR, 5 nM Activin A + 15 nM binder over Follistatin-288 surface. The protocol: as §1
The target of test [11] is T1, Activin A. As to the kind of experiment: SPR, 5 nM Activin A + 0 nM binder (no inhibitor) over Follistatin-288 surface. As for the experimental part:
as §1

The target in test [12] is T1, Activin A. The test can be described thus: SPR, 5 nM Activin A + 60 nM binder over Follistatin-288 surface. The protocol: as §1
In test [13] the target is T1, Activin A. The test can be described thus: SPR, 5 nM Activin A + 1.88 nM binder over Follistatin-288 surface. The protocol:
as §1

For test [14], the target named is T1, Activin A. As to the kind of experiment: SPR, 5 nM Activin A + 3.75 nM binder over Follistatin-288 surface. As for the experimental part: as §1
The target of test [15] is T1, Activin A. As to the kind of experiment: SPR, 5 nM Activin A + 1.88 nM binder over hActRIIA-hFc surface. As for the experimental part: as §1
The target in test [16] is T1, Activin A. The test can be described thus: SPR, 5 nM Activin A + 0.94 nM binder over hActRIIA-hFc surface. The protocol: as §1
Test [17] concerns the target T1, Activin A. The test can be described thus: SPR, 5 nM Activin A + 30 nM binder over Follistatin-288 surface. As for the experimental part: as §1
Test [18] deals with T1, Activin A. The test can be described thus: SPR, 5 nM Activin A + 15 nM binder over hActRIIA-hFc surface. As for the experimental part:
as §1

The target in test [19] is T1, Activin A. The test can be described thus: SPR, 5 nM Activin A + 0.00 nM binder (no inhibitor) over hActRIIA-hFc surface. As for the experimental part: as §1
The target in test [20] is T1, Activin A. As to the kind of experiment: SPR, 5 nM Activin A + 0.94 nM binder over Follistatin-288 surface. The protocol:
as §1

Test [21] deals with T5, Activin A (R&D Systems, #338-AC) (human, UniProt P08476 311-426).
T5 construct: Bought protein; also called inhibin-βA dimer; homodimer of two βA subunits
T5 sequence: T1 sequence
As to the kind of experiment: SPR blocking: 5 nM Activin A + 60 nM binder over hActRIIB-hFc (Control 4) surface. The protocol: as §1

The target in test [22] is T5, Activin A (R&D Systems, #338-AC). The test can be described thus: SPR blocking: 5 nM Activin A + 7.50 nM binder over hActRIIB-hFc (Control 4) surface. The protocol:
as §1

Test [23] shares this target. As to the kind of experiment: SPR blocking: 5 nM Activin A + 0.94 nM binder over hActRIIB-hFc (Control 4) surface. The protocol:
as §1

Test [24] has the same target. As to the kind of experiment: SPR blocking: 5 nM Activin A + 0.00 nM binder over hActRIIB-hFc (Control 4) surface. As for the experimental part: as §1
Test [25] has the same target. The test can be described thus: SPR blocking: 5 nM Activin A + 15 nM binder over hActRIIB-hFc (Control 4) surface. The protocol:
as §1

Test [26] shares this target. The test can be described thus: SPR blocking: 5 nM Activin A + 30 nM binder over hActRIIB-hFc (Control 4) surface. The protocol:
as §1

Test [27] has the same target. The test can be described thus: SPR blocking: 5 nM Activin A + 3.75 nM binder over hActRIIB-hFc (Control 4) surface.
Test [28] shares this target. The test can be described thus: SPR blocking: 5 nM Activin A + 1.88 nM binder over hActRIIB-hFc (Control 4) surface. The protocol:
as §1

B1: H4H10429P (antibody, human IgG4, V domains shown)
VH: QVQLVESGGGVVQPGRSLRLSCVASGFTVSSYGIHWVRQAPGKGLEWVSVIWYDGRNKDYADSVKGRFTISRDNSKNTVYLEMKGLRAEDTALYYCARDKTGDFDSWGQGTLVTVSS
VL: DIQMTQSPSSLSASVGDRVTITCRASQNINSFLSWYQQKPGKAPKFLIYDASSIQSGAPSRFSGSGSGTDFTLTISSLQPEDFATYYCQQSYSSPFTFGQGTKLEIK
For B1, the “% bound RU w/ no inhibitor” value was 1% in test [1]; 19% in test [6]; 1% in test [7]; 1% in test [8]; 1% in test [9]; 1% in test [10]. Besides, the “% bound RU w/ no inhibitor” value was 100% in test [11]; 3% in test [12]; 80% in [13]; 20% in [14]; 66% in test [15]; 87% in test [16]. The “% bound RU w/ no inhibitor” value in [17] worked out at 2%; in test [18], 1%; in test [19], 100%; in [20], 97%. Further, the “IC50, inhibition of 50 pM Activin B in A204/CAGAx12-Luc luciferase bioassay” value in [2] is 7.9e-08 M. In addition, the “IC50, inhibition of 100 pM Activin A in A204/CAGAx12-Luc luciferase bioassay” value in [3] was determined as 1.6e-10 M. In addition, in [4], the “IC50, inhibition of 4 nM Activin AC in A204/CAGAx12-Luc luciferase bioassay” value worked out at 0.58 nM. In [5], the “IC50, inhibition of 30 pM Activin AB in A204/CAGAx12-Luc luciferase bioassay” value came out at 2.9e-10 M.

B2: H4H10429P (antibody, human IgG4, V domains shown)
VH: B1 VH
VL: B1 VL
For B2, the “% bound RU w/ no inhibitor” value stood at 3% in test [21]; 2% in [22]; 87% in [23]; 100% in test [24]; 2% in test [25]; 2% in test [26]. The “% bound RU w/ no inhibitor” value in [27] was 19%; in test [28], 67%.

B3: H4H10433P2 (antibody, human IgG4, V domains shown)
VH: EVQLVESGGGLVQAGRSLRLSCEASGFTFDDYGMHWVRQGPGKGLEWVSGISWNSGNIDYADSVKGRFTISRDNAKTSLYLQMNSLKTDDTALYFCAKDAVGFNWNYFLFDYWGQGTLVTVSS
VL: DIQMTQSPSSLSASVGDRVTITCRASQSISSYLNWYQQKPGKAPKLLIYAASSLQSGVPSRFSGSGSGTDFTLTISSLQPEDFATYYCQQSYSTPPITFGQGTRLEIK
B3: the “IC50, inhibition of 50 pM Activin B in A204/CAGAx12-Luc luciferase bioassay” value in test [2] was found to be 1e-07 M. Besides, the “IC50, inhibition of 100 pM Activin A in A204/CAGAx12-Luc luciferase bioassay” value in test [3] came to 1.5e-10 M.

B4: H4H10423P (antibody, human IgG4, V domains shown)
VH: QVQLQQSGPGLLKPSQTLSLTCAISGDSVSSNSAAWSWIRQSPSRGLEWLGRTYYRANWFNDYALSVKSRITINPVTSTNHFSLQLHSVTPEDTAVYYCAREGALGYYFDSWGQGTLVTVSS
VL: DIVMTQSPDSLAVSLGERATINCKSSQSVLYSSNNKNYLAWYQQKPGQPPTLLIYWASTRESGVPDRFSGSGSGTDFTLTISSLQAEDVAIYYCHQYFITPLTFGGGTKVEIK
In the case of B4, the “% bound RU w/ no inhibitor” value came to 41% in [21]; 42% in test [22]; 93% in test [23]; 100% in test [24]; 42% in [25]; 41% in [26]. For the same molecule, the “% bound RU w/ no inhibitor” value is 47% in test [27] and 78% in test [28].

B5: H4H10436P2 (antibody, human IgG4, V domains shown)
VH: QVQLVESGGGVVQPGRSLRLTCVASGFTVSSYGMHWVRQAPGKGLEWVAVMFYDESKKYYADSVKGRFTISRDNSKNTLYLQMNSLRVEDTAVYYCARDEQLDFEYWGQGTLVTVSS
VL: not shown
With B5, the “% bound RU w/ no inhibitor” value in [1] was found to be 1%; in test [6] it was 16%; in [7], 2%; in test [8], 2%; in test [9], 2%; in [10], 1%. Also, the “% bound RU w/ no inhibitor” value in [11] came out at 100%; in [12], 2%; in [13], 61%; in [14], 16%; in test [15] it was 55%; in test [16], 75%. Also, the “% bound RU w/ no inhibitor” value in test [17] came to 2%; in test [18] it was 2%; in test [19], 100%; in test [20] it was 78%. Moreover, the “IC50, inhibition of 50 pM Activin B in A204/CAGAx12-Luc luciferase bioassay” value in [2] was 1.3e-10 M. Further, the “IC50, inhibition of 100 pM Activin A in A204/CAGAx12-Luc luciferase bioassay” value in test [3] was determined as 2e-10 M. Further, the “IC50, inhibition of 4 nM Activin AC in A204/CAGAx12-Luc luciferase bioassay” value in [4] was 1.3 nM. The “IC50, inhibition of 30 pM Activin AB in A204/CAGAx12-Luc luciferase bioassay” value in test [5] was determined as 1.4e-10 M.

B6: H4H10436P2 (antibody, human IgG4, V domains shown)
VH: B5 VH
VL: not shown
B6: the “% bound RU w/ no inhibitor” value in test [21] is 4%; in test [22] it was 3%; in test [23], 80%; in test [24] it was 100%; in [25] it was 2%; in [26], 3%. Also, the “% bound RU w/ no inhibitor” value in test [27] amounted to 19%; in test [28] it was 60%.
